Laboratory results published in patent publication US11111484B2, “Streptococcus bacteriophage lysins for detection and treatment of gram positive bacteria” (priority 2011, dated 2021).
“Also recorded” adds a separate entry of the source. Like-named read-outs stand apart in the source and are kept apart here.

Columns and labels:
L. monocytogenes = assay: CFU studies, bactericidal effect; format: cell-based, Listeria monocytogenes; details: 128 μg/ml PlySs2, 60 mins
Description: (§1) Log-phase bacteria were resuspended in buffer A to an OD600 of 0.1 (=0.5 McFarland≈10^8 CFU/ml). PlySs2 was added at 128 μg/ml to polypropylene microtiter plates (Costar) in triplicate for each test organism. Plates were sealed and incubated at 37° C. with shaking every 5 minutes for 1 hour. After 1 hour of incubation, cells were serially diluted in 10-fold increments and plated on BHI. Triplicate controls for each strain were performed with buffer B replacing PlySs2.

MRSA MW2 = assay: CFU studies, bactericidal effect; format: cell-based, Staphylococcus aureus; details: 128 μg/ml PlySs2, 1 hour
Description: as §1

S. agalactiae = assay: CFU studies, bactericidal effect; format: cell-based, Streptococcus agalactiae; details: 128 μg/ml PlySs2, 60 mins
Description: as §1

[1] = system: cultures from the oral cavities of two rats; assay: rat oral cavity microbiota study, drops on culture lawns; format: cell-based, rat oral bacteria; details: 10 μL PlySs2 drops on BHI agar lawns; the one culture confirmed as S. aureus
Pseudomonas = assay: PlySs2 lytic activity against species and strains (FIG. 25); format: cell-based; details: Gram-negative control
Description: (§2) FIG. 25 provides PlySs2 activity against different species and strains. Log-phase cultures were exposed to 32 μg/ml PlySs2 for 60 minutes in phosphate buffer. The final OD600 of the treated samples were divided by the final OD600 of the untreated samples to generate the normalized values above. Multiple Staphylococci (including, but not limited to: MRSA, MSSA, and VISA), Streptococci, Listeria, Enterococci, and Bacilli were tested for susceptibility to PlySs2 activity. Escherichia and Pseudomonas were tested as Gram-negative controls.

Listeria strains = assay: as above; format: cell-based; details: 32 μg/ml, 60 minutes
Description: as §2

[2] = system: vancomycin intermediate sensitivity Staphylococcus aureus (VISA) and vancomycin resistant Staphylococcus aureus (VRSA) strains; assay: in vitro tests / standard MIC analysis of staphylococci (FIG. 18); format: cell-based; details: comparable in vitro tests
Description: FIG. 18. PlySS2 was tested by standard MIC analysis for its ability to kill strains of staphylococci. Included in the testing were resistant staphylococci such as Vancomycin resistant (VRSA), Vancomycin intermediate (VISA) and methicillin resistant (MRSA) staphylococci. The three VRSA strains tested represent half of all known isolates.

MRSA = assay: MIC studies; format: cell-based, Staphylococcus aureus
Description: The Wiegand, et al. protocol to determine minimum inhibitory concentrations was followed with adjustments detailed below. A final suspension of ≈5×10^5 cells/ml in MHB (or BHI for S. pyogenes) resulted after Sterile-filtered lysin or vehicle was added at the appropriate concentration. These tests were distributed within a 96-well microtiter plate. The MIC's were determined, in this experiment, by detection of pellet formation in the bottom of rounded polysterene plate wells. They were also corroborated colorimetrically with alamarBlue®.

MRSA strain MW2 = assay: resistance assay, exposure to incrementally increasing concentrations; format: cell-based, Staphylococcus aureus; details: concentration doubled daily from 1/32 to 4× MIC over 8 days
E. coli = assay: CFU studies, bactericidal effect; format: cell-based, Escherichia coli; details: E. coli negative control; 128 μg/ml PlySs2; 60 mins
Description: as §1

B. thuringiensis HD73 = assay: ΔPlySs1 OD600 lysis, 1 hr, optimal buffering conditions; format: cell-based, Bacillus thuringiensis
[3] = system: Group E streptococci K131; assay: as above; format: cell-based
S. equi 700400 = assay: as above; format: cell-based, Streptococcus equi
B. anthracis ΔSterne = format: cell-based, Bacillus anthracis
S. oralis 35037 = assay: ΔPlySs1 OD600 lysis, 1 hr, optimal buffering conditions; format: cell-based, Streptococcus oralis
S. suis S735 (ST2) = assay: ΔPlySs1 CFU analysis, 1 hr treatment; format: cell-based, Streptococcus suis
Description: (§3) Truncated PlySs1(ΔPlySs1) lysin activity was determined against different cell types. Given the above experiments, the following optimal buffering conditions were employed for all further in vitro experiments with ΔPlySs1: 20 mM phosphate buffer, pH=7.8, 2 mM EDTA. A range of lysin concentrations, from 6.5-130 μg/ml, were introduced to live S. suis cells in this buffer. Three strains were considered particularly relevant: 7711, the serotype 7 strain that encodes PlySs1; S735, the serotype 2 reference strain; and 7997, a highly virulent serotype 9 strain. In terms of bacterial viability, only the highest PlySs1-concentration (130 μg/ml) led to a >90% decrease in CFUs for 7711, S735, and 7997 after 1 hr treatment (TABLE 2). The lysin was also tested against actively-dividing cells in broth culture (strain 7711) (FIG. 20).
(§4) For two ΔPlySs1 concentrations (130 and 13 μg/ml), CFU analysis was conducted on S. suis strains S735, 7997, and 7711 after 1 hr treatment (optimal buffering conditions). In each experiment, the percentage-decrease in CFUs was determined for the treated sample versus the untreated. The range of the values observed (across 3 independent experiments) is reported here for each strain. The serotype of each strain is indicated in parentheses.

S. suis 7711 (ST7) = assay: ΔPlySs1 CFU analysis, 1 hr treatment; format: cell-based, Streptococcus suis
Description: as §3, §4

S. suis 7997 (ST9) = assay: ΔPlySs1 CFU analysis, 1 hr treatment; format: cell-based, Streptococcus suis
Description: as §3, §4

S. salivarius 9222 = assay: ΔPlySs1 OD600 lysis, 1 hr, optimal buffering conditions; format: cell-based

B1: PlySs2: Streptococcus suis prophage lysin, SEQ ID NO:3; N-terminal CHAP domain and C-terminal SH3-type 5 domain (protein, listed as Streptococcus suis)
chain: MTTVNEALNNVRAQVGSGVSVGNGECYALASWYERMISPDATVGLGAGVGWVSGAIGDTISAKNIGSSYNWQANGWTVSTSGPFKAGQIVTLGATPGNPYGHVVIVEAVDGDRLTILEQNYGGKRYPVRNYYSAASYRQQVVHYITPPGTVAQSAPNLAGSRSYRETGTMTVTVDALNVRRAPNTSGEIVAVYKRGESFDYDTVIIDVNGYVWVSYIGGSGKRNYVATGATKDGKRFGNAWGTFK
- reduction in CFU counts (L. monocytogenes): dramatically reduced
- reduction of colony forming units (CFUs) (MRSA MW2): 5 logs
- reduction in CFU counts (S. agalactiae): dramatically reduced
- clearing zone around drops on lawns of 6 rat oral cultures [1]: only appeared on one culture
- lytic activity (Pseudomonas): did not display activity
- strains lysed of strains tested (Listeria strains): 2 of 6
- effectiveness against VISA and VRSA [2]: similarly effective
- minimum inhibitory concentration (MIC) (MRSA): 16 µg/mL
- development of resistance (MRSA strain MW2): Neither S. aureus strain developed resistance; also recorded: None of MRSA strain MW2, MSSA strain 8325, nor S. pyogenes strain 5005 developed resistance
- reduction in CFU counts (E. coli): no reduction in number

B2: ΔPlySs1: truncated PlySs1 lysin, SEQ ID NO:2, N-terminal 254 amino acids: only N-terminal enzymatic and central binding domains (protein, listed as Streptococcus suis)
chain: MTINLETSIRWMSDRVGKVSYSMDYRNGPNSYDCSSAVYYALMAGGAISAGWAVNTEYMHDWLIRNGYVLVAENKPFNAQRHDVCILGKRGYSSGAGGHVVIFVDNVNVIHCNYARNGISIDNYNQVHRGMYYYLYRPANQPSISNKSLDQLVKETLAGVHGNGDTRKASLGSQYEAVMAVINGKASASEKSDEELAREVLAGKHGAGEDRKRSLGPRYEPVQAKVNELLKAKEKPSETAKNEPQTVQFKEDGDL
- lysis value after 1 hr (treated/untreated OD600 ratio) (B. thuringiensis HD73; 6.5 μg/ml): 0.99
- lysis value after 1 hr (treated/untreated OD600 ratio) (B. thuringiensis HD73; 13 μg/ml): 0.98
- lysis value after 1 hr (treated/untreated OD600 ratio) (B. thuringiensis HD73; 30 μg/ml): 0.93
- lysis value after 1 hr (treated/untreated OD600 ratio) (B. thuringiensis HD73; 65 μg/ml): 0.86
- lysis value after 1 hr (treated/untreated OD600 ratio) (B. thuringiensis HD73; 130 μg/ml): 0.60
- lysis value after 1 hr (treated/untreated OD600 ratio) ([3]; 6.5 μg/ml): 0.69
- lysis value after 1 hr (treated/untreated OD600 ratio) ([3]; 13 μg/ml): 0.50
- lysis value after 1 hr (treated/untreated OD600 ratio) ([3]; 30 μg/ml): 0.33
- lysis value after 1 hr (treated/untreated OD600 ratio) ([3]; 65 μg/ml): 0.22
- lysis value after 1 hr (treated/untreated OD600 ratio) ([3]; 130 μg/ml): 0.15
- lysis value after 1 hr (treated/untreated OD600 ratio) (S. equi 700400; 6.5 μg/ml): 0.48
- lysis value after 1 hr (treated/untreated OD600 ratio) (S. equi 700400; 13 μg/ml): 0.25
- lysis value after 1 hr (treated/untreated OD600 ratio) (S. equi 700400; 30 μg/ml): 0.15
- lysis value after 1 hr (treated/untreated OD600 ratio) (S. equi 700400; 65 μg/ml): 0.07
- lysis value after 1 hr (treated/untreated OD600 ratio) (S. equi 700400; 130 μg/ml): 0.09
- lysis value after 1 hr (treated/untreated OD600 ratio) (B. anthracis ΔSterne; 6.5 μg/ml): 1.02
- lysis value after 1 hr (treated/untreated OD600 ratio) (B. anthracis ΔSterne; 30 μg/ml): 1.02
- lysis value after 1 hr (treated/untreated OD600 ratio) (B. anthracis ΔSterne; 65 μg/ml): 0.98
- lysis value after 1 hr (treated/untreated OD600 ratio) (B. anthracis ΔSterne; 130 μg/ml): 0.90
- lysis value after 1 hr (treated/untreated OD600 ratio) (S. oralis 35037; 6.5 μg/ml): 0.30
- lysis value after 1 hr (treated/untreated OD600 ratio) (S. oralis 35037; 13 μg/ml): 0.13
- lysis value after 1 hr (treated/untreated OD600 ratio) (S. oralis 35037; 30 μg/ml): 0.08
- lysis value after 1 hr (treated/untreated OD600 ratio) (S. oralis 35037; 65 μg/ml): 0.07
- lysis value after 1 hr (treated/untreated OD600 ratio) (S. oralis 35037; 130 μg/ml): 0.04
- percentage-decrease in CFUs, range of 3 experiments (S. suis S735 (ST2); 13 μg/ml): 80.4%-92.6%
- percentage-decrease in CFUs, range of 3 experiments (S. suis S735 (ST2); 130 μg/ml): 95.4%-99.5%
- percentage-decrease in CFUs, range of 3 experiments (S. suis S735 (ST2); 130 μg/ml, listed as PlySs1): > 90%
- percentage-decrease in CFUs, range of 3 experiments (S. suis 7711 (ST7); 13 μg/ml): 0%-35.6%
- percentage-decrease in CFUs, range of 3 experiments (S. suis 7711 (ST7); 130 μg/ml): 95.3%-99.2%
- percentage-decrease in CFUs, range of 3 experiments (S. suis 7711 (ST7); 130 μg/ml, listed as PlySs1): > 90%
- percentage-decrease in CFUs, range of 3 experiments (S. suis 7997 (ST9); 13 μg/ml): 16.8%-30.3%
- percentage-decrease in CFUs, range of 3 experiments (S. suis 7997 (ST9); 130 μg/ml): 89.9%-93.9%
- percentage-decrease in CFUs, range of 3 experiments (S. suis 7997 (ST9); 130 μg/ml, listed as PlySs1): > 90%
- lysis value after 1 hr (treated/untreated OD600 ratio) (S. salivarius 9222; 6.5 μg/ml): 0.80
- lysis value after 1 hr (treated/untreated OD600 ratio) (S. salivarius 9222; 13 μg/ml): 0.76
- lysis value after 1 hr (treated/untreated OD600 ratio) (S. salivarius 9222; 30 μg/ml): 0.56
- lysis value after 1 hr (treated/untreated OD600 ratio) (S. salivarius 9222; 65 μg/ml): 0.53
- lysis value after 1 hr (treated/untreated OD600 ratio) (S. salivarius 9222; 130 μg/ml): 0.37
